# According to US20110217237A1 (AbbVie / Abbott, published 2011):
# Where two headings read alike, the source gives them in different places.
# Assays:
# [1] = molecular target: T1, mouse DLL4 extracellular domain (mouse, UniProt Q9JI71 27-532); experiment: SPR (Biacore)
# T1 construct: extracellular domain; also called muDLL4 ECD; murine DLL4
# Summary of the method: (§1)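 Purified anti-DLL4 antibodies (1 μg/ml) captured on immobilized goat anti-human Fc, with DLL4 ECD injected as analyte; HBS-EPB running buffer (pH 7.4), 25° C, referenced against capture-only surface. On/off rates from global 1:1 Langmuir fit; KD = Koff/Kon.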
# [2] = molecular target: T1, mouse DLL4 extracellular domain; experiment: binding ELISA, DLL4 ECD
# [3] = molecular target: T2, human DLL4 extracellular domain (human, UniProt Q9NR61 27-529); experiment: binding ELISA, DLL4 ECD
# T2 construct: purified recombinant ECD; biotin-labelled or 6xHis-tagged depending on the assay; also called huDLL4 ECD; hu DLL4 ECD
# mouse DLL4 on cells [4] = molecular target: T3, mouse DLL4 on cells (mouse, UniProt Q9JI71 27-686); experiment: FACS, DLL4 cells
# T3 construct: whole, on cells; also called mouse DLL4-293G; mu DLL4 cells
# Method: (§2) Stable cell lines overexpressing cell-surface DLL4 were harvested from tissue culture flasks, washed four times and resuspended in phosphate buffered saline (PBS) containing 1% bovine serum albumin and 1 mM CaCl₂ (FACS buffer). 1.5×10⁵ cells were incubated with antibodies at various concentrations in FACS buffer for 60 minutes on ice. […] Following an incubation on ice (4° C., 60 minutes), cells were washed three times and resuspended in FACS buffer. Fluorescence was measured using a Becton Dickinson FACSCalibur-HTS (Becton Dickinson, San Jose, Calif., US). Data were analyzed using Graphpad Prism software and EC₅₀ values were reported as the concentration of antibody to achieve 50% of maximal DLL4 antibodies binding to DLL4 expressing cells. […]
# [5] = molecular target: T4, human DLL4, full length, on cells (human, UniProt Q9NR61 27-685); experiment: FACS, DLL4 cells
# T4 construct: also called huDLL4 cells; human DLL4-293G
# Method: as §2
# [6] = molecular target: T2, human DLL4 extracellular domain; experiment: SPR (Biacore)
# Method: (§3) The BIACORE® surface plasmon resonance assay (Biacore, Inc., Piscataway, N.J., US) determines the affinity of antibodies with kinetic measurements of on-rate and off-rate constants. Binding of DLL4 antibodies to a purified recombinant DLL4 extracellular domain (ECD) was determined by surface plasmon resonance-based measurements with a Biacore® instrument (either a Biacore 2000, Biacore 3000, or Biacore T100; GE Healthcare, Piscataway, N.J., US) using running buffer HBS-EPB (10 mM HEPES [pH 7.4], 150 mM NaCl, 3 mM EDTA, 0.1 mg/ml BSA and 0.005% surfactant P20) at 25° C. For example, approximately 9000 RU of goat anti-human Fc specific polyclonal antibody (Thermo Fisher Scientific Inc., Rockford, Ill., US) diluted in 10 mM sodium acetate (pH 4.5) is directly immobilized across a CMS research grade biosensor chip using a standard amine coupling kit according to manufacturer's instructions and procedures at 25 μg/ml. Unreacted moieties on the biosensor surface were blocked with ethanolamine. For kinetic analysis, rate equations derived from the 1:1 Langmuir binding model were fitted simultaneously to multiple antigen injections (using global fit analysis) with the use of Scrubber 2 (BioLogic Software), Biacore Biaevaluation 4.0.1 software or Biacore T100 Evaluation software. Purified antibodies were diluted in running buffer for capture across goat anti-human Fc reaction surfaces. Antibodies to be captured as a ligand (1 μg/ml) were injected over reaction matrices at a flow rate of 10 μl/min. During the assay, all measurements were referenced against the capture surface alone (i.e., with no captured anti-DLL4 antibody). […] The equilibrium dissociation constant KD (M) of the reaction between antibodies and the target antigen was then calculated from the kinetic rate constants by the following formula: KD=Koff/Kₒₙ. Binding was recorded as a function of time and kinetic rate constants were calculated.
# [7] = molecular target: T5, cynomolgus monkey DLL4 extracellular domain (cynomolgus monkey); experiment: SPR (Biacore)
# T5 construct: extracellular domain; also called cynoDLL4 ECD; Cyno DLL4
# Method: as §3
# [8] = molecular target: T6, rat DLL4 extracellular domain (rat, UniProt D3ZHH1 28-530); experiment: SPR (Biacore)
# T6 construct: extracellular domain; also called ratDLL4 ECD
# Summary of the method: as §1
# mouse DLL4 on cells [9] = molecular target: T3, mouse DLL4 on cells; experiment: competition FACS: huNotch-1-biotin to DLL4 cells
# Method: (§4) Notch blocking assay: Briefly, stable cell lines overexpressing cell-surface DLL4 were harvested from tissue culture flasks and re-suspended in phosphate buffered saline (PBS) containing 1% bovine serum albumin and 1 mM CaCl₂ (FACS buffer). HEK293G-DLL4 cells were dispensed into 96-well plate (v-bottom) at 1.5×10⁵ cells/well in FACS buffer. After spinning down cells and discarding the supernatant, 50 μL of purified IgG with appropriate dilution were added to each well, and incubated on ice at 4° C. for 60 minutes, followed by addition of 50 μL/well of Notch1-biotin at 0.2 μg/mL for human DLL4-293G or 2.0 μg/mL for mouse DLL4-293G (1.0 or 0.1 μg/mL final) for an additional 1 hour incubation ice at 4° C. After washing the cells two times with FACS buffer, 50 μL of R-phycoerythrin-conjugated streptavidin (1:150 dilution in FACS buffer) (Jackson ImmunoResearch, West Grove, Pa., Cat.#016-110-084) were added. Following an incubation on ice (4° C., 60 minutes), cells were washed three times and resuspended in FACS buffer. Fluorescence was measured using a Becton Dickinson FACSCalibur-HTS (Becton Dickinson, San Jose, Calif.). Data were analyzed using Graphpad Prism software, and IC₅₀ values were reported as the concentration of antibody to achieve 50% reduction of Notch1 bound to DLL4 expressing cells. […]
# [10] = molecular target: T4, human DLL4, full length, on cells; experiment: competition FACS: huNotch-1-biotin to DLL4 cells
# Method: as §4
# [11] = molecular target: T4, human DLL4, full length, on cells; experiment: cell-based or functional assay
# mouse DLL4 on cells [12] = molecular target: T3, mouse DLL4 on cells; experiment: competition FACS: huNotch-1 to DLL4 cells
# Method: (§5) Notch blocking assay: Briefly, stable cell lines overexpressing cell-surface DLL4 were harvested from tissue culture flasks and re-suspended in phosphate buffered saline (PBS) containing 1% bovine serum albumin and 1 mM CaCl₂ (FACS buffer). HEK293G-DLL4 cells were dispensed into 96-well plate (v-bottom) at 1.5×10⁵ cells/well in FACS buffer. After spinning down cells and discarding the supernatant, 50 μL of purified IgG with appropriate dilution were added to each well, and incubated on ice at 4° C. for 60 minutes, followed by addition of 50 μL/well of Notch1-biotin at 0.2 μg/mL for human DLL4-293G or 2.0 μg/mL for mouse DLL4-293G (1.0 or 0.1 μg/mL final) for an additional 1 hour incubation ice at 4° C. After washing the cells two times with FACS buffer, 50 μL of R-phycoerythrin-conjugated streptavidin (1:150 dilution in FACS buffer) (Jackson ImmunoResearch, West Grove, Pa., Cat.#016-110-084) were added. Following an incubation on ice (4° C., 60 minutes), cells were washed three times and resuspended in FACS buffer. Fluorescence was measured using a Becton Dickinson FACSCalibur-HTS (Becton Dickinson, San Jose, Calif.). Data were analyzed using Graphpad Prism software, and IC₅₀ values were reported as the concentration of antibody to achieve 50% reduction of Notch1 bound to DLL4 expressing cells.
# [13] = molecular target: T4, human DLL4, full length, on cells; experiment: competition FACS: huNotch-1 to DLL4 cells
# Method: as §5
# mouse DLL4 on cells [14] = molecular target: T3, mouse DLL4 on cells; experiment: FACS, DLL4 cells; remark: listed apart in the source
# [15] = molecular target: T4, human DLL4, full length, on cells; experiment: FACS, DLL4 cells; remark: listed apart in the source
# T1 sequence (Q9JI71 27-532): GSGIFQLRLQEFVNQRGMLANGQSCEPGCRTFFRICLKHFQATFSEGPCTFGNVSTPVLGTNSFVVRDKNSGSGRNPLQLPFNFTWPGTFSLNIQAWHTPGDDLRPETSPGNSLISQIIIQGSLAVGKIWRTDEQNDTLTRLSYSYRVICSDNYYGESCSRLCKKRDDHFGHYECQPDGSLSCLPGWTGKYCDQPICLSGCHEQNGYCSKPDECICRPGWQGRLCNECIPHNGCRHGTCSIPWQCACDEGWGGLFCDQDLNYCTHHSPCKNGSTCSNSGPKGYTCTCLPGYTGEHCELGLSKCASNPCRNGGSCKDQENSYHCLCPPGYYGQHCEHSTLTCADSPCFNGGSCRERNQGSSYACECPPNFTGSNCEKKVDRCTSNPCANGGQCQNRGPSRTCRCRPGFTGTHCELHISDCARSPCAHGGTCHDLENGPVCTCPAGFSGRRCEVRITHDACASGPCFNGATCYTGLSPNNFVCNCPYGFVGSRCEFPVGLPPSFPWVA
# T2 sequence (Q9NR61 27-529 limits assumed): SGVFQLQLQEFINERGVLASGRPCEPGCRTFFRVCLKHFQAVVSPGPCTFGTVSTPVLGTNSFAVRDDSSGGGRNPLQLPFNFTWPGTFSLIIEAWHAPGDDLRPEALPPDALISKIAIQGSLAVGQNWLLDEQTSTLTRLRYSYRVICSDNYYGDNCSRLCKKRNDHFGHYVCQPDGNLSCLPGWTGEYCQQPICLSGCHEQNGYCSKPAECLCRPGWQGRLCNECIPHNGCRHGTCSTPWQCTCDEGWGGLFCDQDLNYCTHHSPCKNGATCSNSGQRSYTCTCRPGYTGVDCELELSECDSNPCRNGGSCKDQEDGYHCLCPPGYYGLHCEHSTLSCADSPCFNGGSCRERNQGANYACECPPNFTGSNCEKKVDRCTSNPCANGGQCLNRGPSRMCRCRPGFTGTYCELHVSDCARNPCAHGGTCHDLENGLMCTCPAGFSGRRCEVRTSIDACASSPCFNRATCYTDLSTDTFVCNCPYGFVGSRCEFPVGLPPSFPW
# T4 sequence (Q9NR61 27-685 limits assumed): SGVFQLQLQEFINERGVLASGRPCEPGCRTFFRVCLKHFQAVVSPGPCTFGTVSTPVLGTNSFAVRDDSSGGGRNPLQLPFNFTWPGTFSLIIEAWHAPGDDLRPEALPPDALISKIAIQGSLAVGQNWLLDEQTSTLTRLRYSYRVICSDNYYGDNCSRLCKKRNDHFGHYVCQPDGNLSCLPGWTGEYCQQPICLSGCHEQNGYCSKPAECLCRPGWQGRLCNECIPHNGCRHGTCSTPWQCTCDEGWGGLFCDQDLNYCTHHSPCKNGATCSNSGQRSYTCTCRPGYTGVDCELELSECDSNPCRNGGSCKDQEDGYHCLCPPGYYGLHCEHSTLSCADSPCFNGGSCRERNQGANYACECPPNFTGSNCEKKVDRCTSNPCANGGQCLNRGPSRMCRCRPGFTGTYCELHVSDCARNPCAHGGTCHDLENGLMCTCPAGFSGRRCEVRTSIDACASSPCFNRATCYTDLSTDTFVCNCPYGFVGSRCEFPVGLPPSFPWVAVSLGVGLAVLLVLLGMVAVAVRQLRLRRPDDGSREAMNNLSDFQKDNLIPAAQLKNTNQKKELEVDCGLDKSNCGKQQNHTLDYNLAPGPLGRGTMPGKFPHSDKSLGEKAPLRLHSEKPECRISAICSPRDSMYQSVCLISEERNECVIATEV
# T3 sequence (Q9JI71 27-686): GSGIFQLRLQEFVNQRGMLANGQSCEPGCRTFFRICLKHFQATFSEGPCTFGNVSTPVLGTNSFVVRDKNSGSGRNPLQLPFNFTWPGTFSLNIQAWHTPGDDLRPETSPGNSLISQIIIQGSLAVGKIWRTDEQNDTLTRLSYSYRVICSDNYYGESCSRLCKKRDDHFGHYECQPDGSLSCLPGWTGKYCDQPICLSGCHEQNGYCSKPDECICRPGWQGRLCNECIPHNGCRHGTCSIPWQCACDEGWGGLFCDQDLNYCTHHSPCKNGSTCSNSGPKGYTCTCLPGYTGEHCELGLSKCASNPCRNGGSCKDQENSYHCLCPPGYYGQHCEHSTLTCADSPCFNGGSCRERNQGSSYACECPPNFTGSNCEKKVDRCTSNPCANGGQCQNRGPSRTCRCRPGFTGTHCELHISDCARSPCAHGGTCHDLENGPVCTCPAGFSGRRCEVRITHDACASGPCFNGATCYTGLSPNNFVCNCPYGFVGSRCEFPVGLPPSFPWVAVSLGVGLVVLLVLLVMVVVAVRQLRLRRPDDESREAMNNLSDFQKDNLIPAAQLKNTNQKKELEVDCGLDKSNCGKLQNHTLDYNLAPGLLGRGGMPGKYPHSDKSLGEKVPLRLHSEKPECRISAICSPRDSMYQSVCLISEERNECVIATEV
# T6 sequence (D3ZHH1 28-530): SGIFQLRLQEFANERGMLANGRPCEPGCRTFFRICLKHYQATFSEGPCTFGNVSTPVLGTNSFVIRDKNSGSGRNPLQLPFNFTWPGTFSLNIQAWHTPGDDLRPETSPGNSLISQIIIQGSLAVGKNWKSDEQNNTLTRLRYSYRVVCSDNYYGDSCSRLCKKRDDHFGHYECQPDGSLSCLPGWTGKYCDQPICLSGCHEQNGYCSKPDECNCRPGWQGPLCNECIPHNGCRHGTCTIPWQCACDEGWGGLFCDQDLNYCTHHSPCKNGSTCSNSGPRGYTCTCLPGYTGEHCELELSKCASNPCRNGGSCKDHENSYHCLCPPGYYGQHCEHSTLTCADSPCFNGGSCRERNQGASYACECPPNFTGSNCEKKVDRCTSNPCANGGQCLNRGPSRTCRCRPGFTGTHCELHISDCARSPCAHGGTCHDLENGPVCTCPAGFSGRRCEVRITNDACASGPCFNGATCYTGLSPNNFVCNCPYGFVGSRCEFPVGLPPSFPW
Binder,Kd [1] [nM],koff [1] [s⁻¹],kon [1] [M⁻¹ s⁻¹],EC50 (mouse DLL4 on cells [4]) [nM],EC50 [5] [nM],Kd [6] [nM],koff [6] [s⁻¹],kon [6] [M⁻¹ s⁻¹],Kd [7] [nM],koff [7] [s⁻¹],kon [7] [M⁻¹ s⁻¹],binding result [8],IC50 [10] [nM],"Notch activation Inhibition (IC50, nM), huDLL4 cell/Notch reporter cells [11] [nM]",IC50 (mouse DLL4 on cells [12]) [nM],IC50 [13] [nM],EC50 (mouse DLL4 on cells [14]) [nM],EC50 [15] [nM],also measured
"15D6 rat anti-DLL4 monoclonal antibody (antibody, rat IgG2a, V domains shown, rat IgG2a/K hybridoma mAb; also called MC13-15D6.1G7) VH: EVQLQQSGPELAKPGSSVKISCKASGYTFTSSYISWIKQTTGQGLEYIGYINTGSGGTDYNEKFKDKATLTVDKSSRTVFMQLSSLTPGDSAVYYCAKSILLGSTYYLDYWGQGVMVTVSS VL: DTVLTQSPALAVSLGQRVTISCKASRSLSSPMYSYIYWYQQKLGQQPRLLIYRASTLASGVPARFSGSGSGTDFTLNIDPVEADDIATYFCQQSWSDPFTFGSGTKLEIKR",0.7,5.1e-05,74000,1.6,15,9.2,0.001,110000,14.9,0.00083,56000,no binding,25,3.2,–,–,–,–,IC50 (mouse DLL4 on cells [9]): 1.5 nM
"14A11 chimeric antibody (antibody, human IgG1, V domains shown, also called Chimera of 14A11) VH: EVQLQQSGPELAKPGSSVKISCKASGYTFTNSYISWIKQTTGQGLEYVGYINTGSGGADYNEKFKGKATLTVDKSSRTAFMQLSSLTPGDSAVYYCAKSILLGSTCYFDYWGQGVLVTVSS VL: NTVLTQSPALAVSLGQRVTISCKASRSVSSPMYSYIYWYQQKPGQQPKLLIYRASTLASGVPARFSGSGSGTDFTLNIDPVEADDIATYFCQQSWSDPFTFGSGTKLEIKR",–,–,–,–,–,–,–,–,–,–,–,–,–,–,1.39,4.03,2.14,1.61,–
"15D6 chimeric antibody (antibody, human IgG1, V domains shown, also called Chimera of 15D6) VH: EVQLQQSGPELAKPGSSVKISCKASGYTFTSSYISWIKQTTGQGLEYIGYINTGSGGTDYNEKFKDKATLTVDKSSRTVFMQLSSLTPGDSAVYYCAKSILLGSTYYLDYWGQGVMVTVSS VL: DTVLTQSPALAVSLGQRVTISCKASRSLSSPMYSYIYWYQQKLGQQPRLLIYRASTLASGVPARFSGSGSGTDFTLNIDPVEADDIATYFCQQSWSDPFTFGSGTKLEIKR",–,–,–,–,–,–,–,–,–,–,–,–,–,–,1.49,10.5,1.82,1.72,–

# More lines, main results first:
Kd [1] [nM],koff [1] [s⁻¹],kon [1] [M⁻¹ s⁻¹],EC50 (mouse DLL4 on cells [4]) [nM],EC50 [5] [nM],Kd [6] [nM],koff [6] [s⁻¹],kon [6] [M⁻¹ s⁻¹],Kd [7] [nM],koff [7] [s⁻¹],kon [7] [M⁻¹ s⁻¹],binding result [8],IC50 [10] [nM],"Notch activation Inhibition (IC50, nM), huDLL4 cell/Notch reporter cells [11] [nM]",IC50 (mouse DLL4 on cells [12]) [nM],IC50 [13] [nM],EC50 (mouse DLL4 on cells [14]) [nM],EC50 [15] [nM],Binder,also measured
88,0.0041,48000,0.8,3.1,0.03,7e-06,280000,0.03,6.3e-06,220000,–,–,–,–,–,–,–,"32C7 rat anti-DLL4 monoclonal antibody (antibody, rat IgG2a, V domains shown, rat IgG2a/k hybridoma mAb; also called MC10-32C7.5A4) VH: EVQLVESGGGLVQPGRSLKLSCLASGFPFSSVWMTWIRQAPGKGLEWIATITNSGASTYYSASVKGRFTISRDNVKSTLYLQMTSLGSEDTATYYCTRVGTSFDYWGQGVMVTVSS VL: DIQMTQSPASLSASLGETVTIECRASDDIYNGLAWFQQKPGKSPQLLIYDANTLHTGVPSRFSGSGSGTQFSLKINSLQSEDVASYFCQQFYDYPPYTFGAGTKLELKR",EC50 [2]: 0.15 nM; EC50 [3]: 0.08 nM
–,–,–,–,–,–,–,–,–,–,–,–,–,–,4.39,5.95,0.99,2.32,"37D10 chimeric antibody (antibody, human IgG1, V domains shown, also called Chimera of 37D10) VH: AVQLVESGGGLVQPKESLKISCAASGFTFSNAAMYWVRLAPGKGLEWVARIRTKPNNYATYYAESVKGRFTISRDDSKSMVYVQMDNLKTEDTAMYYCTAAPWRDSYAHVYWGQGVMVTVSS VL: DIQMTQSPPVLSASVGDRVTLSCKASQNIHKNLDWYQQKHGDAPKLLIYYTDHLQTGVPSRFSGSGSATDYTLTISSLQPEDVATYYCYQYNGGPFTFGSGTKLEIKR",–
–,–,–,> 50,8.6,7.2,0.00039,54000,10.5,0.00041,39000,no binding,4.2,6.1,–,–,–,–,"14G1 rat anti-DLL4 monoclonal antibody (antibody, rat IgG2a, V domains shown, rat IgG2a/K hybridoma mAb; also called MC13-14G1.1B4) VH: EVQLQQSGAELAKPGSSVKISCKASGYTFTNYDISWIKQTNGQGLEYLGYINTGSGGIYSNEKFKGKATLTVDKSSNTAFMQLSSLTPEDTAVYYCVREGNNFDHWGQGVKVTVSS VL: DTVMTQSPASMSTSVGERVTVNCKASQSVGTIVAWFQQKPGQSPKRLIYLATYRHTGVPDRFIGSGFGRDFTLTISNVEAEDLAVYYCLQYGSRPFTFGAGTKLEIKR",binding result [1]: no binding
